Results published in publication PMC11137178, “Protein disulfide isomerase-9 interacts with the lumenal region of the transmembrane endoplasmic reticulum stress sensor kinase, IRE1, to modulate the unfolded protein response in Arabidopsis” (Frontiers in Plant Science, 2024).

T1: PDI9:mCherry-KDEL (Arabidopsis thaliana, UniProt O48773 25-440)
T1 construct: Protein disulfide isomerase-9 (PDI9, PDI-M subfamily), Arabidopsis thaliana, At2g32920; made from the earlier construct PDI9:GFP-KDEL (Yuen et al., 2013) by exchanging GFP for mCherry; also called PDI9:Cherry-KDEL; PDI9:RFP; source: Arabidopsis leaf mesophyll protoplasts, transiently transfected, in living cells; not shown: mCherry-KDEL, C-terminal, kept
T1 sequence (looked up): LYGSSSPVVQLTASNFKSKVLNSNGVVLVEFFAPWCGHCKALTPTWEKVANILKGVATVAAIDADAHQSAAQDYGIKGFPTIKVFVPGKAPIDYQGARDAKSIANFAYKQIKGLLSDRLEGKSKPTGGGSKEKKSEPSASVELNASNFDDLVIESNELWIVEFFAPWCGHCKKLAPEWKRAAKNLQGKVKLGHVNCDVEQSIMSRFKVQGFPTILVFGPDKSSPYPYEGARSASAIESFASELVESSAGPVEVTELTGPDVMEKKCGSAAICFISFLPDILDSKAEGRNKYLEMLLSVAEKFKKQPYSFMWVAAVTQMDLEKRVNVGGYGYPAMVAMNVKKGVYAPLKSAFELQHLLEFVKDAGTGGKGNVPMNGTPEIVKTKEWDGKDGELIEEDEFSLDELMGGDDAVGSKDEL

T2: PDI9(C63A):mCherry-KDEL (Arabidopsis thaliana, UniProt O48773 25-440, C63A)
T2 construct: PDI9, Arabidopsis thaliana, At2g32920; as m1 with the second cysteine of the first thioredoxin active site (CGHC to CGHA) changed; Parent construct m1; source: Arabidopsis leaf mesophyll protoplasts, transiently transfected, in living cells; not shown: mCherry-KDEL, C-terminal, kept
T2 sequence (looked up): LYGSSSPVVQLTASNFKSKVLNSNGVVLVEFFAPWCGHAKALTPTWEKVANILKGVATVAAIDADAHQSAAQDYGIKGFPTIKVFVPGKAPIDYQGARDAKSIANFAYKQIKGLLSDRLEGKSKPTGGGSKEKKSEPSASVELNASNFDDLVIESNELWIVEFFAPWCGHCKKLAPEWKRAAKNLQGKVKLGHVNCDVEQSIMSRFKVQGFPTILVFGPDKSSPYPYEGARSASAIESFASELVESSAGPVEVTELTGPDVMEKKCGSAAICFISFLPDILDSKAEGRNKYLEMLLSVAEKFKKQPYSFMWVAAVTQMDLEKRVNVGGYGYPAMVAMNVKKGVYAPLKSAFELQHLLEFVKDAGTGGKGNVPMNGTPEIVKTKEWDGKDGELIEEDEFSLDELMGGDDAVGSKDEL

B1: GFP : IRE1B (receptor, Arabidopsis thaliana, UniProt Q93VJ2 22-881, looked up)
chain: FKGSEISKFYDKSISNQISQSDRESGYVLVSTVDGSISLVDMSSQKLDWTFHTNEPIYSSYQAPHYHYTTDEERSSVLGDDFYMDCDKDWRLYNSSVRKGKRVNEIVDASEFIGTLPYTSTDRIVLGKKDTSVFLLDWKTGKLVKRYRMDELYSNTVVENDKEKAIVLSKEAPLLFGSGFKKSEDFPELVYIERKDFKIQCISKFGDVLWSVSYAKMEAKLQNHESVQFISGLSSSVGKNQFPLSYTTSVPMVQLRNVKYETLFPRLGFLDEALYLPFQDRKPNQLAIGDGNQLTLPGNKEAEEVLSLPLPETVISQITDIIDGSTKQAGFASKFSGLIVLIFGFCVTMLSVCGLFFYRLRQSIRIKEPYVSEVPIATPKKKKSKKNGTTKAVHKKENGFISGGNKDPSHEENEKRLLTAFPGLNNSSAEGYRVGKLFVSNKEIAKGSNGTVVLEGSYEGRLVAVKRLVQSHHDVAQKEILNLMASDKHSNIVRWYGVDQDEHFIYISLELCACSLNDLIYASSALLESPMASSSIHSIQINPIFENGKGVELWKENGHPSPVLLKLMRDIVAGLVHLHDIGIVHRDLKPQNVLIVKNSSLCAKLSDMGISKRLPADTSALTRNSTGLGSGSSGWQAPEQLRNERQTRAVDLFSLGCVLFFCMTGGKHPYGDNYERDVNVLNDQKDLFLIESLPEAVHLLTGLLNPDPNLRPRAQDVMHHPLFWNSDMRLSFLRDASDRVELENREEGSQLLAALESTAAVTLNGRWDEKLDSIFLDNIGRYRRYKFDSIRDLLRVIRNKLNHYRELPKELQELLGSVPEGFERYFSSRFPKLLIQVYTVLFDYCNNEEFFFKYSKTTVF
notes: IRE1B, Arabidopsis thaliana, At5g24360; mature polypeptide region amplified from Col-0 genomic DNA and placed after the IRE1B signal peptide and GFP; Construct order: IRE1B signal peptide, GFP, mature IRE1B; source: Arabidopsis leaf mesophyll protoplasts, transiently transfected; in living cells (FLIM-FRET) and in protoplast extract (co-I.P.); not shown: GFP (eGFP S65T), N-terminal, kept
B2: GFP : IRE1A (receptor, Arabidopsis thaliana, UniProt Q9C5S2 31-841, looked up)
chain: DDVTYPIVPSSPGRRSILQIRREPPTEPNTKLVVDRDGKVFLKQQPKETPYWSFSTGSPMHSLYQAPANNNTENATEITRPHIIVEYLNNSKAATTVDGYHNWTVQEFFRQKPLVTDDGVTLGSETTSAYLVDGRSGRLIHVYKSTGDTKITNALVKPASTEDFVNEPLLIRRTDSKLEHFSKTTGKLVWNLTVSHFRAALLCDPVFNSGYDLGPKLQTGIYMPLLCGSQIDVRGPEIVIRVLHDQPMNVKMLPSPSLNHFESENSIMPFGKARESRKLQEQHKQKYTYLFGQWSPVKLLAPLVLLGVVVSVFIKKFSSRGSDVSLKAGPSKKKKNRKSAKDTNRQSVPRGQDQFELIEGGQMLLGFNNFQSGATDGRKIGKLFLSSKEIAKGSNGTVVFEGIYEGRPVAVKRLVRSHHEVAFKEIQNLIASDQHTNIIRWYGVEYDQDFVYLSLERCTCSLDDLIKSYLEFSMTKVLENNDSTEGVAAYKIQLDSLEGVIKGNNFWKVGGHPSPLMLKLMRDIVCGIVHLHELGIVHRDLKPQNVLISKDMTLSAKLSDMGISKRMSRDMSSLGHLATGSGSSGWQAPEQLLQGRQTRAVDMFSLGCVIFYTITGCKHPFGDDLERDVNIVKNKVDLFLVEHVPEASDLISRLLNPDPDLRPSATEVLLHPMFWNSEMRLSFLRDASDRVELENREADSEILKAMESTAPVAIGGKWDEKLEPVFITNIGRYRRYKYDSIRDLLRVIRNKLNHHRELPPEIQELVGTVPEGFDEYFAVRFPKLLIEVYRVISLHCREEEVFRKYFKCDII
notes: IRE1A (inositol-requiring enzyme-1 kinase), Arabidopsis thaliana, At2g17520; mature polypeptide region amplified from Col-0 genomic DNA and placed after the IRE1A signal peptide and GFP; Construct order: IRE1A signal peptide, GFP, mature IRE1A; source: Arabidopsis leaf mesophyll protoplasts, transiently transfected; in living cells (FLIM-FRET) and in protoplast extract (co-I.P.); not shown: GFP …

What was measured:
PDI9:mCherry-KDEL = target: T1, PDI9:mCherry-KDEL; assay: FRET or BRET; FLIM-FRET in living Arabidopsis leaf mesophyll protoplasts coexpressing the GFP donor (on IRE1) and the mCherry acceptor (on PDI9), 16-18 h after transfection; GFP lifetime per region of interest; E = (1 - ti/t0) x 100% against single-transfected GFP:IRE1; conditions: partners not purified
PDI9(C63A):mCherry-KDEL = target: T2, PDI9(C63A):mCherry-KDEL; assay: as above; conditions: partners not purified

Binder | GFP donor fluorescence lifetime (PDI9:mCherry-KDEL) [ns] | GFP donor fluorescence lifetime (PDI9(C63A):mCherry-KDEL) [ns]
B1 | 2.31 | 2.42
B2 | 2.29 | 2.42
